One protein from patent publication US20240043824A1 (UNIVERSITE DE LORRAINE, published 2024) can be followed below.

The series concerns the molecule itself. Put plainly: ITC dilution of a 100 µM stock at 25° C.; self-association of the decamer, no CTC could be determined.

B1: Prx1 from Pyrococcus furiosus (Pfu-Prx) in which the cysteine residues have been mutated into serine residues (enzyme)
chain: MIVIGEKFPEVEVKTTHGVIKLPDHFTKQGKWFMLFSHPADFTPVSTTEFYGLQIRLEKFRELGVEPIGLSVDQVFSHLKWMEWIKEKLGVEIEFPVIADDRGDLAEKLGMIPSGSTITARAVFIVDDKGIIRAIVYYPAEVGRDWDEILRLVKALKISTEKGVALPHKWPNNELIGDKVIVPPASSVEQIKEREEAKAKGEIESYDWWFSYKKLE
notes: not described
For B1, the binding result was “binds”.
